Test results reported in US20090053233A1 (LABORATOIRE FRANCAIS DU FRACTIONNEMENT ET DES …, published 2009).

T1: CD20 antigen expressed on Raji cells (UniProt P11836 1-297, limits assumed)
T1 construct: whole, on cells; Raji is a human B cell line
T1 sequence (looked up): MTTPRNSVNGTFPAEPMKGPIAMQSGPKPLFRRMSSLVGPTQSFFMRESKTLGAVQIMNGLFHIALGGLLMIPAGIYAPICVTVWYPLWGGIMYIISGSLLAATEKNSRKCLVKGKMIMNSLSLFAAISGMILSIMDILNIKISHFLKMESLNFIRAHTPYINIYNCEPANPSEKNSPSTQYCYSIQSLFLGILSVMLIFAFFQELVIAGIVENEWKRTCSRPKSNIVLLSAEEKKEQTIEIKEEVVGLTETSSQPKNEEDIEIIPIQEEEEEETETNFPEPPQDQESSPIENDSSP


Assays:
[1] = biological target: CD16 (FcγRIIIA) receptor expressed on Jurkat-CD16 cells (human, UniProt P08637 17-208); assay: cell-based or functional assay
CD16 (FcγRIIIA) receptor expressed on Jurkat-CD16 cells, sequence (P08637 17-208): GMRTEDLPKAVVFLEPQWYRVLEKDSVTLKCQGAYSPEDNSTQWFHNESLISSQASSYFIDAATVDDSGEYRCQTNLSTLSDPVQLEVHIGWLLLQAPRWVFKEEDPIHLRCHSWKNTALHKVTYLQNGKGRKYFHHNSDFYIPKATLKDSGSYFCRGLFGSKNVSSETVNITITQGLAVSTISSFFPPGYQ

[2] = biological target: T1, CD20 antigen expressed on Raji cells; assay: flow cytometry competition on Raji cells; competitor CAT-13.6E12 detected with PE anti-mouse IgG
[3] = biological target: T1, CD20 antigen expressed on Raji cells; assay: specificity study, as for EMAB6 (competition with CAT-13.6E12 on Raji cells); no details given

| Binder | Rituxan® EC50/EMAB6 EC50 ratio, IL-2 secretion by Jurkat-CD16 cells in the presence of Raji cells [1] | binding result [2] | binding result [3] |
| --- | --- | --- | --- |
| anti-CD20 chimeric antibody EMAB6 produced by clone R509 (YB2/0 cell line) (antibody, human IgG1, kappa, Murine-human chimeric IgG1 kappa (murine CAT-13.6E12 variable regions, human gamma1 and kappa constant regions), produced in rat YB2/0 cells, low fucose; The cloned V fragments carry the natural signal peptide; also called chimeric EMAB6 antibody; AMAB6) heavy: not shown light: QIVLSQSPAILSASPGEKVTMTCRASSSVSYMHWYQQKPGSSPKPWIYATSNLASGVPARFSGSGSGTSYSFTISRVEAEDAATYYCQQWTFNPPTFGGGTRLEINRTVAAPSVFIFPPSDEQLKSGTASVVCLLNNFYPREAKVQWKVDNALQSGNSQESVTEQDSKDSTYSLSSTLTLSKADYEKHKVYACEVTHQGLSSPVTKSFNRGEC | ~15 ratio | binds |  |
| anti-CD20 chimeric antibody EMAB603 produced by clone R603 (YB2/0 cell line) (antibody, human IgG1, kappa, Murine-human chimeric IgG1 kappa; Produced in rat YB2/0 cells; also called chimeric EMAB603 antibody; EMBA603) heavy: not shown light: QIVLSQSPAILSASPGEKVTMTCRASSSVSYMHWYQQKPGSSPKPWIYATSNLASGVPARFSGSGSGTSYSFTISRVEAEDAATYYCQQWTFNPPTFGGGTRLEIKRTVAAPSVFIFPPSDEQLKSGTASVVCLLNNFYPREAKVQWKVDNALQSGNSQESVTEQDSKDSTYSLSSTLTLSKADYEKHKVYACEVTHQGLSSPVTKSFNRGEC |  |  | binds |
